# System: Escherichia coli TOP10
# Assay: shrunken log2 fold change of peptide-encoding DNA abundance (4.5 h post-induction vs induction); higher = less antimicrobial activity (less host growth inhibition)
# Settings: time post-induction: 4.5 h; library: site-saturation at positions 5, 18, 19, 20
# 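Also: peptides expressed intracellularly from a pBAD plasmid library in pooled LB shake-flask culture, induced with 0.3% L-arabinose, DNA abundance read by NGS, three biological replicates, DESeq2 with apeglm shrinkage.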
row,Sequence,shrunken log2 fold change
1,RRIRKRPPRLPRPRPRPRMEPRP,0.0104
2,RRIRVRPPRLPRPRPRPVVYPRP,0.0805
3,RRIRLRPPRLPRPRPRPCRKPRP,-0.19
4,RRIRLRPPRLPRPRPRPQVPPRP,-0.0408
5,RRIRARPPRLPRPRPRPQCLPRP,0.23
6,RRIRCRPPRLPRPRPRPFTFPRP,-0.351
7,RRIRDRPPRLPRPRPRPDEIPRP,0.0508
8,RRIRKRPPRLPRPRPRPCPHPRP,0.0793
9,RRIRYRPPRLPRPRPRPVTNPRP,-0.015
10,RRIRHRPPRLPRPRPRPRTIPRP,-0.344
11,RRIRGRPPRLPRPRPRPVDNPRP,0.408
12,RRIRERPPRLPRPRPRPRIQPRP,-0.362
13,RRIRCRPPRLPRPRPRPRYCPRP,-0.654
14,RRIRWRPPRLPRPRPRPNPPPRP,0.206
15,RRIRPRPPRLPRPRPRPCKPPRP,-0.136
16,RRIRIRPPRLPRPRPRPNISPRP,-0.199
17,RRIRFRPPRLPRPRPRPRYKPRP,-0.311
18,RRIRLRPPRLPRPRPRPMDEPRP,-0.119
19,RRIRHRPPRLPRPRPRPEGCPRP,0.0614
20,RRIRWRPPRLPRPRPRPICWPRP,0.646
21,RRIRKRPPRLPRPRPRPAMAPRP,0.664
22,RRIRWRPPRLPRPRPRPLVQPRP,0.23
23,RRIRRRPPRLPRPRPRPDYYPRP,-0.0675
24,RRIRVRPPRLPRPRPRPAPGPRP,0.472
25,RRIRCRPPRLPRPRPRPPRIPRP,0.48

row,Sequence,shrunken log2 fold change
1,RRIRQRPPRLPRPRPRPIVIPRP,0.0668
2,RRIRMRPPRLPRPRPRPFWFPRP,0.132
3,RRIRHRPPRLPRPRPRPYDQPRP,-0.291
4,RRIRARPPRLPRPRPRPCRSPRP,-0.0342
5,RRIRQRPPRLPRPRPRPRQVPRP,0.302
6,RRIRQRPPRLPRPRPRPFKFPRP,-0.00873
7,RRIRLRPPRLPRPRPRPPGRPRP,0.66
8,RRIRARPPRLPRPRPRPNKIPRP,-0.136
9,RRIRNRPPRLPRPRPRPGHTPRP,-0.175
10,RRIRVRPPRLPRPRPRPNHSPRP,-0.632
11,RRIRHRPPRLPRPRPRPMDTPRP,0.03
12,RRIRSRPPRLPRPRPRPWVNPRP,-0.0336
13,RRIRIRPPRLPRPRPRPQPSPRP,-0.214
14,RRIRPRPPRLPRPRPRPIYMPRP,-0.306
15,RRIRWRPPRLPRPRPRPKIVPRP,-0.272
16,RRIRGRPPRLPRPRPRPWSCPRP,0.202
17,RRIRHRPPRLPRPRPRPHPPPRP,0.261
18,RRIRVRPPRLPRPRPRPSPIPRP,-0.324
19,RRIRYRPPRLPRPRPRPPTVPRP,-0.146
20,RRIRQRPPRLPRPRPRPPEAPRP,0.243
21,RRIRRRPPRLPRPRPRPKKPPRP,0.974
22,RRIRNRPPRLPRPRPRPYHNPRP,-0.275
23,RRIRIRPPRLPRPRPRPVAYPRP,-0.0713
24,RRIRKRPPRLPRPRPRPEGVPRP,1.44
25,RRIRLRPPRLPRPRPRPYRVPRP,-0.00141

row,Sequence,shrunken log2 fold change
1,RRIRPRPPRLPRPRPRPEEQPRP,0.00406
2,RRIRVRPPRLPRPRPRPYRYPRP,-0.228
3,RRIRGRPPRLPRPRPRPWRYPRP,0.122
4,RRIRGRPPRLPRPRPRPAGIPRP,0.207
5,RRIRQRPPRLPRPRPRPARDPRP,0.0373
6,RRIRCRPPRLPRPRPRPDGCPRP,-0.0861
7,RRIRVRPPRLPRPRPRPKIEPRP,0.132
8,RRIRPRPPRLPRPRPRPDLDPRP,0.114
9,RRIRLRPPRLPRPRPRPLASPRP,0.177
10,RRIRCRPPRLPRPRPRPAQIPRP,0.00931
11,RRIRKRPPRLPRPRPRPFNRPRP,-0.203
12,RRIRLRPPRLPRPRPRPDCDPRP,0.183
13,RRIRGRPPRLPRPRPRPFYLPRP,-0.0695
14,RRIRRRPPRLPRPRPRPQNYPRP,-0.304
15,RRIRCRPPRLPRPRPRPDTYPRP,-0.075
16,RRIRRRPPRLPRPRPRPQTPPRP,0.881
17,RRIRLRPPRLPRPRPRPCARPRP,0.0322
18,RRIRLRPPRLPRPRPRPHCQPRP,-0.0416
19,RRIRIRPPRLPRPRPRPPTHPRP,-0.184
20,RRIRRRPPRLPRPRPRPWMVPRP,-0.151
21,RRIRWRPPRLPRPRPRPLHCPRP,-0.444
22,RRIRIRPPRLPRPRPRPCAFPRP,-0.1
23,RRIRLRPPRLPRPRPRPWFRPRP,-0.252
24,RRIRTRPPRLPRPRPRPFQSPRP,0.00942
25,RRIRCRPPRLPRPRPRPLWNPRP,-0.208

row,Sequence,shrunken log2 fold change
1,RRIRQRPPRLPRPRPRPQFPPRP,-0.202
2,RRIRDRPPRLPRPRPRPCTGPRP,-0.0116
3,RRIRNRPPRLPRPRPRPAGSPRP,0.086
4,RRIRQRPPRLPRPRPRPIESPRP,-0.181
5,RRIRDRPPRLPRPRPRPWYPPRP,-0.0798
6,RRIRYRPPRLPRPRPRPKQFPRP,-0.155
7,RRIRWRPPRLPRPRPRPGSLPRP,0.0223
8,RRIRKRPPRLPRPRPRPSLFPRP,0.125
9,RRIRTRPPRLPRPRPRPFSFPRP,-0.341
10,RRIRARPPRLPRPRPRPRNTPRP,0.146
11,RRIRNRPPRLPRPRPRPAHCPRP,-0.424
12,RRIRPRPPRLPRPRPRPMNRPRP,-0.118
13,RRIRIRPPRLPRPRPRPMMYPRP,-0.13
14,RRIRDRPPRLPRPRPRPPWRPRP,0.499
15,RRIRCRPPRLPRPRPRPHFDPRP,0.0458
16,RRIRHRPPRLPRPRPRPCCTPRP,-0.181
17,RRIRCRPPRLPRPRPRPCDWPRP,0.116
18,RRIRSRPPRLPRPRPRPMMEPRP,0.0765
19,RRIRDRPPRLPRPRPRPGCEPRP,0.852
20,RRIRGRPPRLPRPRPRPHLCPRP,0.58
21,RRIRCRPPRLPRPRPRPGALPRP,0.264
22,RRIRTRPPRLPRPRPRPLEPPRP,0.021
23,RRIRCRPPRLPRPRPRPFLIPRP,-0.36
24,RRIRGRPPRLPRPRPRPEIWPRP,1.34
25,RRIRLRPPRLPRPRPRPDPLPRP,0.172

row,Sequence,shrunken log2 fold change
1,RRIRIRPPRLPRPRPRPNKHPRP,-0.727
2,RRIRHRPPRLPRPRPRPRVSPRP,0.106
3,RRIRLRPPRLPRPRPRPYNMPRP,-0.859
4,RRIRDRPPRLPRPRPRPQHRPRP,-0.198
5,RRIRCRPPRLPRPRPRPIDIPRP,0.0768
6,RRIRNRPPRLPRPRPRPPRAPRP,0.658
7,RRIRYRPPRLPRPRPRPYAWPRP,-0.14
8,RRIRQRPPRLPRPRPRPPLDPRP,0.685
9,RRIRTRPPRLPRPRPRPFRMPRP,0.0244
10,RRIRSRPPRLPRPRPRPGIGPRP,1.62
11,RRIRKRPPRLPRPRPRPEPAPRP,1.45
12,RRIRRRPPRLPRPRPRPIQQPRP,-0.0495
13,RRIRTRPPRLPRPRPRPSFPPRP,-0.261
14,RRIRVRPPRLPRPRPRPSDAPRP,-0.203
15,RRIRQRPPRLPRPRPRPHNCPRP,0.113
16,RRIRDRPPRLPRPRPRPPWMPRP,0.261
17,RRIRARPPRLPRPRPRPYTPPRP,-0.373
18,RRIRERPPRLPRPRPRPIGDPRP,-0.942
19,RRIRERPPRLPRPRPRPQFSPRP,-0.0998
20,RRIRTRPPRLPRPRPRPVSGPRP,-0.0612
21,RRIRARPPRLPRPRPRPRPLPRP,0.707
22,RRIRWRPPRLPRPRPRPYAQPRP,-0.189
23,RRIRHRPPRLPRPRPRPANHPRP,-0.262
24,RRIRRRPPRLPRPRPRPWGYPRP,-0.275
25,RRIRDRPPRLPRPRPRPFIKPRP,-0.206

row,Sequence,shrunken log2 fold change
1,RRIRTRPPRLPRPRPRPQVNPRP,-0.587
2,RRIRNRPPRLPRPRPRPPMSPRP,-0.0527
3,RRIRSRPPRLPRPRPRPPSRPRP,0.263
4,RRIRMRPPRLPRPRPRPSFFPRP,0.0666
5,RRIRMRPPRLPRPRPRPAFKPRP,-0.323
6,RRIRRRPPRLPRPRPRPCYPPRP,-0.0837
7,RRIRVRPPRLPRPRPRPCPSPRP,-0.0233
8,RRIRGRPPRLPRPRPRPTTNPRP,0.878
9,RRIRPRPPRLPRPRPRPESWPRP,1.54
10,RRIRWRPPRLPRPRPRPVGNPRP,0.0858
11,RRIRGRPPRLPRPRPRPWWRPRP,0.626
12,RRIRTRPPRLPRPRPRPMSSPRP,-0.00458
13,RRIRRRPPRLPRPRPRPCVAPRP,0.261
14,RRIRDRPPRLPRPRPRPFMYPRP,-0.212
15,RRIRRRPPRLPRPRPRPNWVPRP,0.00352
16,RRIRTRPPRLPRPRPRPCSYPRP,-0.129
17,RRIRNRPPRLPRPRPRPIGYPRP,0.103
18,RRIRMRPPRLPRPRPRPQKCPRP,-0.0433
19,RRIRRRPPRLPRPRPRPSMCPRP,0.008
20,RRIRFRPPRLPRPRPRPRHSPRP,0.0584
21,RRIRWRPPRLPRPRPRPVNNPRP,0.018
22,RRIRTRPPRLPRPRPRPISTPRP,-0.504
23,RRIRCRPPRLPRPRPRPKQTPRP,-0.0521
24,RRIRNRPPRLPRPRPRPEEPPRP,0.0512
25,RRIRCRPPRLPRPRPRPTDNPRP,-0.58
